The target of data set [1] is T1, taxadienol acetyl transacylase (TAX1) (Taxus cuspidata, UniProt Q9M6F0).
T1 construct: Full-length insert fragments of the relevant plasmids are excised and subcloned in-frame into the expression vector pCWori+; made in house; host or cells: E. coli JM109 (pCWori+)
T1 sequence (Q9M6F0 1-439): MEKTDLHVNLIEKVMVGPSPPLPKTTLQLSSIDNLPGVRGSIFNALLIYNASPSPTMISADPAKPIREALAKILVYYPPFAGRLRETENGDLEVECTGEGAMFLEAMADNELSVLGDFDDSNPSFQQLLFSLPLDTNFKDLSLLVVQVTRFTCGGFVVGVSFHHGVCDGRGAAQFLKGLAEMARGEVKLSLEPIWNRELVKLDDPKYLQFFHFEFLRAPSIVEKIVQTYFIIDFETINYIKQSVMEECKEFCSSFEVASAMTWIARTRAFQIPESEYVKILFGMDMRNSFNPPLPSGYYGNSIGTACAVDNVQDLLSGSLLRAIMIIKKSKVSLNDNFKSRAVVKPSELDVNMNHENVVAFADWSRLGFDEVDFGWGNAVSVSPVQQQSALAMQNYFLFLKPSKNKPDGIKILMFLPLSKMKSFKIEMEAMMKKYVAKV
Put plainly: recombinant TAX1 expressed in E. coli JM109, taxadienol acetyl transacylase assay. To be noted: cell-free extract, radiochemical analysis. The data set is classed as biochemical. The method, then: To determine the identity of the putative taxadienol acetyl transacylase, TAX1 (SEQ ID NO: 28), TAX2 (SEQ ID NO: 26), and TAX6 (SEQ ID NO: 45) were subcloned in-frame into the expression vector pCWori+ (Barnes, Methods Enzymol. 272:3–14, 1996) and expressed in E. coli JM109 cells. The transformed bacteria were cultured and induced with isopropyl β-D-thiogalactoside (IPTG), and cell-free extracts were prepared and evaluated for taxadienol acetyl transacylase activity using the previously developed assay procedures (Walker et al., Arch. Biochem. Biophys. 364:273–279, 1999). Clone TAX1 (corresponding directly to Probe 1) expressed high levels of taxadienol acetyl transacylase activity (20% conversion of substrate to product), as determined by radiochemical analysis; the product of this recombinant enzyme was confirmed as taxadienyl-5α-yl acetate by gas chromatography-mass spectrometry (GC-MS) (FIGS. 5A–5G). […] Neither of the recombinant proteins expressed from TAX1 (SEQ ID NO: 28) or TAX2 (SEQ ID NO: 26) was capable of acetylating the advanced paclitaxel precursor 10-deacetyl baccatin III to baccatin III. […]

Data set [2] addresses T2, 10-deacetylbaccatin III-10-O-acetyl transferase (TAX6) (Taxus cuspidata, UniProt Q9M6E2).
T2 construct: to amplify the putative full-length acetyl transferase gene and incorporate NdeI and XbaI restriction sites; made in house; host or cells: E. coli JM109 (pCWori+)
T2 sequence (Q9M6E2 1-440): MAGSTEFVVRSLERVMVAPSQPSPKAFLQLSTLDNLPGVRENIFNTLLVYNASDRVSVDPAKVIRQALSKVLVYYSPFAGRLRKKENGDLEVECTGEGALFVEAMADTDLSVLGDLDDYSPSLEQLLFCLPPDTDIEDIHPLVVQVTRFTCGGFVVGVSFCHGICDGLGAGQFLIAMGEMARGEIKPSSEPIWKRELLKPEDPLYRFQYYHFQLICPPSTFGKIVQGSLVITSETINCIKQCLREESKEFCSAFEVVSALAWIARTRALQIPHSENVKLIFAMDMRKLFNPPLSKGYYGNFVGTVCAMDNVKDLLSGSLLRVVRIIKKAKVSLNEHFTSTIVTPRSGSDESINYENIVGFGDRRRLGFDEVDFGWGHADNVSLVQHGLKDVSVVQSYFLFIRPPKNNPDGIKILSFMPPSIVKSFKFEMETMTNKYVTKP
Type of data set: biochemical. The method, then:
For the enzyme preparation, E. coli cells transformed with the pCWori+ vector harboring the putative DBAT gene were grown overnight at 37° C. in 5 mL Luria-Bertani medium supplemented with ampicillin, and 1 mL of this inoculum was added to and grown in 100 mL Terrific Broth culture medium (6 g bacto-tryptone, Difco Laboratories, Spark, Md., 12 g yeast extract, EM Science, Cherryhill, N.J., and 2 mL gycerol in 500 mL water) supplemented with 1 mM IPTG, 1 mM thiamine HCl and 50 μg ampicillin/mL. After 24 hours, the bacteria were harvested by centrifugation, resuspended in 20 mL of assay buffer (25 mM Mopso, pH 7.4) and then disrupted by sonication at 0–4° C. The resulting homogenate was centrifuged at 15,000 g to remove debris, and a 1 mL aliquot of the supernatant was incubated with 10-deacetylbaccatin III (400 μM) and [2-^3H]acetyl coenzyme A (0.45μCi, 400 μM) for 1 hour at 31° C. The reaction mixture was extracted with ether and the solvent concentrated in vacuo. The crude product (pooled from five such assays) was purified by silica gel thin-layer chromatography (TLC; 70:30 ethyl acetate:hexane).
The activity of TAX6 (SEQ ID NO: 45) was assayed under standard conditions described in Walker et al., Arch. Biochem. Biophys.

Where “and” joins values, the source holds several entries; their conditions need not be identical. Equal values may be shown once.

The text below walks through data of patent US7153676B1, “Transacylases of the paclitaxel biosynthetic pathway” (priority 1999, dated 2006).

B1: TAX1: full-length clone, SEQ ID NO: 27/28; encodes Taxus taxadienol acetyl transacylase (protein)
chain: T1 sequence (Q9M6F0 1-439)
In the case of B1, in data set [1], the “taxadienol acetyl transacylase activity (conversion of substrate to product)” value stood at 20%.

B2: TAX6: full-length clone, SEQ ID NO: 44/45; 10-deacetylbaccatin III-10-O-acetyl transferase (protein, listed as Taxus cuspidata)
chain: T2 sequence (Q9M6E2 1-440)
As to B2, in data set [2], the “optimum pH” value stood at 7.5; the “pH at half-maximal velocities” value was 6.4 and 7.8.
